According to PMC8242953, “Immune Tolerance-Adjusted Personalized Immunogenicity Prediction for Pompe Disease” (Frontiers in Immunology, 2021):

Assays:
[1] = Anti-rhGAA IgG antibody (ADA) titers in IOPD subjects on ERT; assay type: in vivo, human
Protocol: Children with a confirmed diagnosis of IOPD were enrolled in Duke University Medical Centers. IOPD was defined as the presence of hypertrophic cardiomyopathy in the first year of life. […] Clinical data including CRIM status, GAA variants, GAA enzyme activity, age at ERT initiation, and longitudinal anti-rhGAA IgG antibody titers were extracted from medical records ( Supplementary Table S1 ).
ADA titers were determined by Sanofi Genzyme using enzyme-linked immunosorbent assays (ELISA) and confirmed using radioimmunoprecipitation as described previously ([6]). Subjects whose ADA titers repeatedly exceed 51,200 after more than 6-months on rhGAA were classified as high and sustained antibody titers (HSAT) ([5], [11]). Subjects whose ADA titers fell between 12,800 and 51,200 within the first year of ERT were classified as sustained intermediate titers (SIT). Based on ADA titers, subjects were stratified into two groups; 1) High ADA, subjects who developed ADA titers in HSAT or SIT range (≥12,800) and 2) Low ADA, subjects who maintained ADA titers of ≤6,400.

[2] = CRIM-positive IOPD children on ERT; ref [5]; cited from earlier work
Source text: The development of ADA to rhGAA is influenced by the presence or absence of endogenous GAA, defined as cross-reactive immunologic material (CRIM). Individuals who are CRIM-negative have a complete absence of GAA and are at the highest risk of ADA, whereas those who are CRIM-positive may be more immune tolerant to ERT, due to prior exposure to endogenous GAA ([4]). However, one-third of CRIM-positive IOPD children still develop high and sustained or intermediate ADA titers, putting them at risk for clinical decline similar to CRIM-negative individuals ([5]). All CRIM-negative patients develop H ...

alglucosidase alfa [rhGAA]
subjects who developed high ADA titers ([1]; 19 of 48 CRIM-positive IOPD subjects on rhGAA ERT without ITI, high ADA = HSAT or SIT, titers ≥12,800): 40%
subjects who developed low ADA titers ([1]; 29 of 48 CRIM-positive IOPD subjects on rhGAA ERT without ITI, low ADA = titers ≤6,400): 60%
share of CRIM-positive IOPD children who develop high and sustained or intermediate ADA titers [2]: one-third
